Measurements: PMC10628234

Experiments:
CbFic2 [1] = target: T1, CbFic2 (Coxiella burnetii, UniProt Q83DB6 1-378); assay: fluorescence anisotropy; Hill 0.772; conditions: protein: recombinant; tags: N-terminal G-H-M remnant after TEV cleavage; label: 5'-FITC on one strand
CbFic2 [2] = target: T1, CbFic2; assay: fluorescence anisotropy; Hill 1.354; conditions: protein: recombinant; tags: N-terminal G-H-M remnant after TEV cleavage; label: 5'-FITC on one strand
TS-CbFic2 = TS-CbFic2 (Coxiella burnetii, UniProt Q83DB6 1-378); assay: fluorescence anisotropy; Hill 1.082; conditions: protein: recombinant; tags: N-terminal Twin-Strep + EK site (G-H-M-TS-G-A-EK-H-M); label: 5'-FITC on one strand
CbFic2 [3] = target: T1, CbFic2; assay: fluorescence anisotropy; Hill 0.988; conditions: protein: recombinant; tags: N-terminal G-H-M remnant after TEV cleavage; label: 5'-FITC on one strand
CbFic2 [4] = target: T1, CbFic2; assay: circular dichroism; conditions: protein: recombinant; tags: N-terminal G-H-M remnant after TEV cleavage; blunt, self-complementary, 2 copies

B1: 5'-FITC 40 bp dsDNA (dsDNA)
DNA 1: TTGATTACCGTCAGTTGGAGCCCATATTATACATGAAGAC
DNA 2: GTCTTCATGTATAATATGGGCTCCAACTGACGGTAATCAA
Kd (CbFic2 [1]): 108 nM

B2: 5'-FITC 20 bp dsDNA (40% GC) (dsDNA)
DNA 1: AGTTTAGTGCGCTAATCTGA
DNA 2: TCAGATTAGCGCACTAAACT
Kd (CbFic2 [2]): 220 nM
Kd (TS-CbFic2): 116 nM

B3: 5'-FITC 60 bp dsDNA (dsDNA)
DNA 1: TCACTCAAGAAGCAGACACAGTAAGACACGGTTTAGCTGATTGTTTATCGATTAGGTCAA
DNA 2: TTGACCTAATCGATAAACAATCAGCTAAACCGTGTCTTACTGTGTCTGCTTCTTGAGTGA
Kd (CbFic2 [3]): 36.5 nM

B4: d(CG)10 duplex, 100% GC (dsDNA)
DNA 1: CGCGCGCGCGCGCGCGCGCG
DNA 2: CGCGCGCGCGCGCGCGCGCG
binding result (CbFic2 [4]): binds
